Values belong to the binder of their own block, whether it stands above or below them.
Experiments:
Details in all cases: both partners purified
[1] = molecular target: T1, GST-Cmd1 (yeast calmodulin fused to glutathione-S-transferase) (S. cerevisiae (yeast), UniProt P06787 1-147); assay: pull-down; MBP-fused TRPY1 fragments (12 ug) immobilised on amylose resin, incubated with 12 ug GST-Cmd1 or GST-Cmd1–6 with 2 mM Ca2+, 60 min, 4 °C; bound protein detected by anti-GST blot
T1 construct: Yeast calmodulin Cmd1, wild type; In the peptide scan the same fusion protein was used ^14C-labelled (^14C-GST-Cmd1); also called GST-fused Cmd1; yeast CaM; source: E. coli, purified (glutathione sepharose)

6His-Cmd1 = molecular target: T2, 6His-Cmd1 (S. cerevisiae (yeast), UniProt P06787 1-147); assay: pull-down; GST, GST-Cmd1 or GST-TRPY1-C (12 ug) immobilised on glutathione sepharose; 6His-Sumo-TRPY1-N or 12 ug 6His-Cmd1 added, 2 mM CaCl2, 60 min, 4 °C; SDS-PAGE and Coomassie blue staining
T2 construct: Yeast calmodulin Cmd1, wild type; also called yeast CaM; source: E. coli, purified (Ni–NTA agarose)

[2] = molecular target: T1, GST-Cmd1 (yeast calmodulin fused to …); assay: peptide or protein array; 20-mer TRPY1 peptides shifted by five residues on cellulose membrane (16 nmoles per spot); ^14C-GST-Cmd1 (60 cpm per spot) in 50 mM Tris pH 7.5, 150 mM NaCl, 0.1% Triton X-100, 2 mM CaCl2, 4 °C, 16 h; autoradiography

T1 sequence (P06787 whole entry, the tested form may be a part): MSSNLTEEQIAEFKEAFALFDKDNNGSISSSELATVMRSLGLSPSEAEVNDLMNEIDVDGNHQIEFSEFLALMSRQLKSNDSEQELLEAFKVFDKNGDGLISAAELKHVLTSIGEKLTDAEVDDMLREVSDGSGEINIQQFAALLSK
T2 sequence (P06787 whole entry): as the sequence (P06787 whole entry, the tested form may be a part) above

binding result [1]: binds
B1: MBP-TRPY1-C (cytosolic C terminus of TRPY1 fused to maltose-binding protein) (domain or fragment, S. cerevisiae, UniProt Q12324 538-675, looked up)
chain: KETREARRIKYNRMKRLNDDANEYDTPWDLTDGYLDDDDGLFSDNRNSGMRATQLKNSRSLKLQRTAEQEDVHFKVPKKWYKNVKKCSPSFEQYDNDDTEDDAGEDKDEVKELTKKVENLTAVITDLLEKLDIKDKKE
notes: TRPY1 (Yvc1, gene YVC1), Saccharomyces cerevisiae; cytosolic C terminus, printed as 137 amino acids, residues 538-675 (K538 to E675); The limits 538-675 are printed for GST-TRPY1-C and for 'the complete recombinant TRPY1 C terminus'; also called MBP-fused TRPY1-C; Yvc1 C terminus; source: E. coli, purified (amylose resin)

binding result (6His-Cmd1): binds
B2: GST-TRPY1-C (538–675) (domain or fragment, S. cerevisiae, UniProt Q12324 538-675, looked up)
chain: B1 chain
notes: TRPY1 (Yvc1), Saccharomyces cerevisiae; cytosolic C terminus, printed as 137 amino acids, residues 538-675 (K538 to E675); also called GST-tagged TRPY1-C; source: E. coli, purified (glutathione sepharose)

binding result [2]: binds
B3: TRPY1 C-terminal peptide of the peptide scan, residues 527–546 (peptide, UniProt Q12324 527-546, looked up)
peptide: VYSPFLLLISVKETREARRI
notes: source: synthetic peptide, spot-synthesised on cellulose membrane

Reference: article PMC8449268, “Activity of the yeast vacuolar TRP channel TRPY1 is inhibited by Ca^2+–calmodulin binding” (The Journal of Biological Chemistry, 2021)
